Assay results reported in patent publication US20260049134A1 (UNIVERSITY OF FLORIDA RESEARCH FOUNDATION, published 2026).

Target: T1, PTPRG-Fc (ECD of human PTPRG, aa 20-736, fused to human Fc gamma 1) (human, UniProt P23470 20-736)
T1 construct: Made in-house in Expi293 cells; Used in ELISA and SPR; also called recombinant PTPRG-Fc; PTRPG; not shown: human IgG1 Fc (Fc gamma 1) after the hinge
T1 sequence: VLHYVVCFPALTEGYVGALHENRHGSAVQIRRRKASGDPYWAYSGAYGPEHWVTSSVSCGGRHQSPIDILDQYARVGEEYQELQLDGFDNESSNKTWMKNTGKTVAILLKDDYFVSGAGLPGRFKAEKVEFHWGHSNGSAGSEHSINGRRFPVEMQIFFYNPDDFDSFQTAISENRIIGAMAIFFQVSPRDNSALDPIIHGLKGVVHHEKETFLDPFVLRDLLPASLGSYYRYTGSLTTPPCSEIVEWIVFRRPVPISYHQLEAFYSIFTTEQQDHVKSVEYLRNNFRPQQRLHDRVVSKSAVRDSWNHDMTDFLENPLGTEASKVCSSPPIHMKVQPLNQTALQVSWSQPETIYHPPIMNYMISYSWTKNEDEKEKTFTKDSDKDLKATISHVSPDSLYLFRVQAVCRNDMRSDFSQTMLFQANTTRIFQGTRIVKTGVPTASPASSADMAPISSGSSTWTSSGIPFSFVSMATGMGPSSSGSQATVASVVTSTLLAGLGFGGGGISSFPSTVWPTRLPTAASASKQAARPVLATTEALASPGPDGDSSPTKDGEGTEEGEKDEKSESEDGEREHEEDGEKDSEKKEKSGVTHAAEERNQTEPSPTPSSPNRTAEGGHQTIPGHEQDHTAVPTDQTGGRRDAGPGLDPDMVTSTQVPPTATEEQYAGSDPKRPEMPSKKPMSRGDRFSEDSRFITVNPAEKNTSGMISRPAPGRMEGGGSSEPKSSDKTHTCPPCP
Experiment: SPR, Biacore X100; PTPRG-Fc captured by anti-human Fc on CM5, Fab injected; mean of triplicates (SD)
Protocol: A Biacore X100 instrument was used to determine the monovalent affinities of the C-1 cluster of Fabs for recombinant PTPRG-Fc, as previously described. […] Each experiment was repeated in triplicate. Rate constants (kₒₙ, koff, and Kd) were calculated using the Biacore evaluation software (Cytiva).

B1: HW-25 Fab (chimeric rabbit/human, His-tagged) (Fab, V domains shown)
VH: QSLEESGGRLVTPGTPLTLTCTVSGFSLSSYAMGWVRQAPGKGLEWIGIIDSRGSTYYATWAKGRFTISKTSTTVDLKITSPTTEDTATYFCAREDSYYYDSFNLWGPGTLVTVSS
VL: SFVLTQPASVQVNLGQTVSLTCTADTLSRRYASWYQQKPGQAPVLLIYRDTSRPSGVPDRFSGSSSGNTATLTISGAQAGDEADYYCATSDGSGSSYQCVFGGGTQLTVT
notes: Monovalent Fab: rbVH-huCH1 and rbVL-huCL, His-tagged, made in E. coli from pET11a
Kd: 0.65 nM | koff: 0.000367 s⁻¹ | kon: 566000 M⁻¹ s⁻¹

B2: HW-1 Fab (chimeric rabbit/human, His-tagged) (Fab, V domains shown)
VH: QSLEESGGGLFKPTDTLTLTCTASGFSLGSSYAISWVRQAPGKELEWIGTIDSGRAYYARWAKSRSTITRNTNENTVTLKMTSLTAADTATYFCARDLIPTYSQDIWGPGTLVTISS
VL: SFVLTQPASVQVNLGQTVSLTCTADTLSRRYASWYQQKPGQAPVLLIYRDTSRPSGVPDRFSGSSSGNTATLTISGAQAGDEADYYCATSDGSGNSYQYVFGGGTQLTVT
notes: as for B1
Kd: 2.54 nM | koff: 0.000482 s⁻¹ | kon: 195000 M⁻¹ s⁻¹

B3: HW-42 Fab (chimeric rabbit/human, His-tagged) (Fab, V domains shown)
VH: QSVKESEGGLFKPADTLTLTCTVSGFSLSSNEISWVRQAPGEGLEYIGIIDTGGRAYYAVWARSRSTITRNTNLNTVTLKMTSLTAADTATYFCARGGVDTEWYAFSSWGPGTLVTVPS
VL: SFVLTQPASVQVNLGQTVSLTCTADTLSRRYASWYQQKPGQAPVLLIFRDTSRPSGVPDRFSGSSSGDTATLTISGAQAGDEADYYCATSDGSGSNYQYVFGGGTQLTVT
notes: as for B1
Kd: 28.9 nM | koff: 0.00429 s⁻¹ | kon: 149000 M⁻¹ s⁻¹

B4: HW-17 Fab (chimeric rabbit/human, His-tagged) (Fab, V domains shown)
VH: QSLGESRGRLVTPDETLTLTCTVSGIDLSSNAMSWVRQAPGEGLEWIGTINTGGRAYYASWAKGRFTISRTSTTVDLKMTSLTTEDTATYFCARERYSDGRAYDIWGPGTLVTISS
VL: SFVLTQPASVQVNLGQTVSLTCTADTLSRRYASWYQQKPGQAPVLLIYTDSNRPSGIPDRFSGSSSGNTATLTISGAQAGDEADYYCATDDGSGSIYQYVFGGGTQLTVT
notes: as for B1
Kd: 9.34 nM | koff: 0.00158 s⁻¹ | kon: 169000 M⁻¹ s⁻¹

B5: HW-70 Fab (chimeric rabbit/human, His-tagged) (Fab, V domains shown)
VH: QSLEESGGRLVTPGTPLTLTCTVSGFSLSSNAMSWVRQAPGKGLEWIGTIDGYGYTYYASWAKGRFTVSKTSTTVDLKITSPTTEDTATYFCAREIYLGSNFWGPGTLVTISS
VL: SFVLTQPASVQVNLGQTVSLTCTADTLSRRYASWYQQKPGQAPVLLIYRDTSRPSGVPDRFSGSSSGNTATLTISGAQAGDEADYYCATADGSGSSYQFVFGGGTQLTVT
notes: as for B1
Kd: 19.1 nM | koff: 0.0153 s⁻¹ | kon: 826000 M⁻¹ s⁻¹
